Measurements: article PMC10256740

How the values were obtained:
[1] = target: FLAG-tagged BicD2-Kif1bα tail fusion (mouse) (UniProt Q60575); assay: centrosome recruitment assay with BicD2-kinesin tail fusions (relocalisation in cells, microscopy); N2A cells transfected with FLAG-BicD2-KIF tail fusion and EGFP-tagged RBP (2:3), fixed after 24 h, anti-FLAG staining; read-out log2 of the mean EGFP intensity at the centrosome over the mean intensity in the whole cell
[2] = target: FLAG-tagged BicD2-Kif1c tail fusion (mouse) (UniProt O35071); assay: as above
Chain of FLAG-tagged BicD2-Kif1c tail fusion (mouse) (O35071 whole entry, the tested form may be a part): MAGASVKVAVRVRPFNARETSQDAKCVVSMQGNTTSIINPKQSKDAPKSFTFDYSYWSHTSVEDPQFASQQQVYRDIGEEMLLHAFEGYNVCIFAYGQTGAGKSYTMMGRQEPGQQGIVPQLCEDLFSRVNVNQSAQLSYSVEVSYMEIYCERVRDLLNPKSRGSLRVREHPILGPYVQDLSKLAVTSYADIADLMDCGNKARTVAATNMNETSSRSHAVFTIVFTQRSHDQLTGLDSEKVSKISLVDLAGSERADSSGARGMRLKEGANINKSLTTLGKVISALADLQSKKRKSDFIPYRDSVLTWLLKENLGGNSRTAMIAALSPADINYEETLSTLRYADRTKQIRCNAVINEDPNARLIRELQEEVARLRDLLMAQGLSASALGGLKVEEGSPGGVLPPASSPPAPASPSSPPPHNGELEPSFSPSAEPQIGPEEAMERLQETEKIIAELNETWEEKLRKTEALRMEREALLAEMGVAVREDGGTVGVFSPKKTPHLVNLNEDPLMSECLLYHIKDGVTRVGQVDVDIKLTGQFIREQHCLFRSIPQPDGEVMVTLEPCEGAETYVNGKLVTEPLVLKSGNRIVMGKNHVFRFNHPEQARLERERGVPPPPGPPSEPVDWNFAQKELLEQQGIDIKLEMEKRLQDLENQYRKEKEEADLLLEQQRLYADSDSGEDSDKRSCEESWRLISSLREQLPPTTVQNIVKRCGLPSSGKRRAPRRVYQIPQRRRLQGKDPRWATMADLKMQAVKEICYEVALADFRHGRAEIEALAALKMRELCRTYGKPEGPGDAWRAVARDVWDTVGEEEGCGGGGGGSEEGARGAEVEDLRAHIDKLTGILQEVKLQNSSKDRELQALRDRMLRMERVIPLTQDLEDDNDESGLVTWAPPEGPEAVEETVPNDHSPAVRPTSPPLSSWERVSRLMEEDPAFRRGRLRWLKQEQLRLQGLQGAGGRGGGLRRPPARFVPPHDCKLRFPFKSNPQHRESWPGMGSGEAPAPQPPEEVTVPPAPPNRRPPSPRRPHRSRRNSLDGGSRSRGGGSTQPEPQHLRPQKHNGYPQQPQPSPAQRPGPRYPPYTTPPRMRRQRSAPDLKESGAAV

Chain of FLAG-tagged BicD2-Kif1bα tail fusion (mouse) (Q60575 other isoform, or with tags, fused parts or gaps): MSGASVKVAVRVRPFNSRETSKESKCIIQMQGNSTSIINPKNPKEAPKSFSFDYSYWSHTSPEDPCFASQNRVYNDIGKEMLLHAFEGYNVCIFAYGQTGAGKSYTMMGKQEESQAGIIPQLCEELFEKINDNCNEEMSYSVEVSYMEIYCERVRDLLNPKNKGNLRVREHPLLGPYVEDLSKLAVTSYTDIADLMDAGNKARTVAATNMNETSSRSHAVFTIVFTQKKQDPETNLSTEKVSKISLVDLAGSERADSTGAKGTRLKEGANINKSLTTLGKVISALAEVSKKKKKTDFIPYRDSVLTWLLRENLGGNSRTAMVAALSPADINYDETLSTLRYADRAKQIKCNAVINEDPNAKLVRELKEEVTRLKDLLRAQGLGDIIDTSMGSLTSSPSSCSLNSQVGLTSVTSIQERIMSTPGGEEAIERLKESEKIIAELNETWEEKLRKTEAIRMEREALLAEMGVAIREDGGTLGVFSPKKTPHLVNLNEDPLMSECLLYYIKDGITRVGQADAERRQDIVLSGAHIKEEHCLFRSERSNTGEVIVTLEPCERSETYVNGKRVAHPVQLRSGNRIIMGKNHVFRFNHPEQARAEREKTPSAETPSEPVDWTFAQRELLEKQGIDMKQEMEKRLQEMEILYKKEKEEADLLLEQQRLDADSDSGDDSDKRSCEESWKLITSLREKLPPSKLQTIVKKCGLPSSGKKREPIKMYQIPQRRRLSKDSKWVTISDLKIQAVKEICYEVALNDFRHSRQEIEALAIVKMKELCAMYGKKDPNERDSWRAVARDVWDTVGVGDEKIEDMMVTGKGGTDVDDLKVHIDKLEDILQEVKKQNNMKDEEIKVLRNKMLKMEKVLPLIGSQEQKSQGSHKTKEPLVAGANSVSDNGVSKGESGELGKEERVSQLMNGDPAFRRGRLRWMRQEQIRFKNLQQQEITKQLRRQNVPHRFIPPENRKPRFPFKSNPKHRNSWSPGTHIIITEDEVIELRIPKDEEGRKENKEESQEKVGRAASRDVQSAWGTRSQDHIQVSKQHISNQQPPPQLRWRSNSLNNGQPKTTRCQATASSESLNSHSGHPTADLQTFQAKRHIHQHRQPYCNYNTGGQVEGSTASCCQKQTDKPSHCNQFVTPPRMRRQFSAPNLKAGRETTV

- log2 mean centrosome recruitment [1]: 1.24 log2
- log2 mean centrosome recruitment [2]: 1.13 log2
B1: EGFP-Tis11d (natural protein)
chain: MSTTLLSPFYDIDFLCKTEKSLANLNLNNMLDKKAVGTPVAAAPSSSFTPGFLRRHSASNLHALAHPVPSPGSCSPKFPGAPNGGGSSCGPAGGGGLASYGQLKEPSGGSGTALVTKESKFRDRSFSENGERSQHLLHLQQQQKGGSGSQINSTRYKTELCRPFEESGTCKYGEKCQFAHGFHELRSLTRHPKYKTELCRTFHTIGFCPYGPRCHFIHNADERRPAPSGGGGASGDLRAFGARDALHLGFAREPRPKLHHSLSFSGFPSGHHQPPGGLESPLLLDSPTSRTPPPPSSSASSCSSSASSCSSASAASTPSGAPTCCATAAAAALLYGPGGAEDLLSPGAPCASCSSSGANNAFAFGPELSSLITPLAIQTHNFAAAAAAAYYRNQQQGLTGPAPPPAQPPAAPAPPSPPFGFQLPRRLSESPVFDAPPSPPDSLSDRDSYLSGSLSSGSLSGSESPSLDPGRRLPIFSRLSISDD
